The text below walks through data of paper PMC3734299, “Farnesyl Phosphatase, a Corpora allata Enzyme Involved in Juvenile Hormone Biosynthesis in Aedes aegypti” (PLoS ONE, 2013).

Data set [1] concerns the target T1, AaFPPase-2 (Aedes aegypti, UniProt Q0IF21).
T1 construct: gene 5568744; His-tagged, expressed in E. coli, purified on HiTrap chelating and PD-10 columns, ~35 kDa
T1 sequence (Q0IF21 1-315): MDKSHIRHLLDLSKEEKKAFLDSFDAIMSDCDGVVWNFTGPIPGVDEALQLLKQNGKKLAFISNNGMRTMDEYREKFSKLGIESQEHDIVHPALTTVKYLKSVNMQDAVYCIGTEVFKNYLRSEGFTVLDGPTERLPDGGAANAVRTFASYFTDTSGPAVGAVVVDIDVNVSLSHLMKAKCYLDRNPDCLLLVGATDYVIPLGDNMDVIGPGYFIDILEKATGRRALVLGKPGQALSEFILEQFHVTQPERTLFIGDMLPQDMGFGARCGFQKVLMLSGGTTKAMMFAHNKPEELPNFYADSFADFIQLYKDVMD
The data set is described as follows: p-NPP phosphatase assay, inhibition. Particulars: inhibitor 0 to 40 µM, 10 min pre-incubation. The class given is biochemical.

The subject of data set [2] is T2, AaFPPase-1.
T2 construct: His-tagged, expressed in E. coli, purified on HiTrap chelating and PD-10 columns, ~35 kDa
The data set is described as follows: p-NPP phosphatase assay, 96-well plate. The class given is biochemical, Aedes aegypti. Particulars: Mg2+ cofactor; optimum pH 6.0.

Data set [3] relates to T2, AaFPPase-1. The data set is described as follows: malachite green phosphate release. It counts as biochemical, Aedes aegypti. Particulars: 100 mM MES pH 6.0, 2 mM MgCl2, 37 °C; read-out: Km μM ±SE. The text has this: malachite green phosphate release on AaFPPase-1
In data set [4] the target is T1, AaFPPase-2. The data set is described as follows: malachite green phosphate release. Particulars: 100 mM MES pH 6.0, 2 mM MgCl2, 37 °C; read-out: Km μM ±SE. It counts as biochemical.
Substrate in data set [5]: CC(C)=CCC/C(C)=C/CC/C(C)=C/CO[P@@](=O)(O)OP(=O)(O)O
Description: malachite green phosphate release. The class given is biochemical, Aedes aegypti. Particulars: 100 mM MES pH 6.0, 2 mM MgCl2, 37 °C.

Substrate in data set [6]: CC(C)=CCC/C(C)=C/COP(=O)(O)OP(=O)(O)O
The data set is described as follows: malachite green phosphate release. It counts as biochemical, Aedes aegypti. Particulars: 100 mM MES pH 6.0, 2 mM MgCl2, 37 °C.

Substrate in data set [7]: O=[N+]([O-])c1ccc(OP(=O)(O)O)cc1
Description: p-NPP phosphatase assay, 96-well plate. It counts as biochemical, Aedes aegypti. Particulars: Mg2+ cofactor, optimum pH 6.0.

Take `CC(=O)N[C@@H](CSC/C=C(\C)CC/C=C(\C)CC/C=C(\C)CCC=C(C)C)C(=O)O` [AGGC]: the inhibition result against AaFPPase-2 [1] was “AGGC was a potent inhibitor of AaFPPase-1 and AaFPPase-2 (Figure S3)”.

What is called Km is the substrate concentration at which the rate is half of its maximum. As for `O=[N+]([O-])c1ccc(OP(=O)(O)O)cc1` [p-NPP], the Km with AaFPPase-1 [2] is 3.96 ± 0.127 mM.

For the molecule `CC(C)=CCC/C(C)=C/COP(=O)(O)OP(=O)(O)O` [GPP], in the data set on AaFPPase-1 [3], the Km stood at 184 ± 14.2 µM.

As for `CC(C)=CCC/C(C)=C/CC/C(C)=C/COP(=O)(O)OP(=O)(O)O` [FPP], in the data set with AaFPPase-1 [3], the Michaelis-Menten constant (Km) worked out at 222 ± 11 µM.

For the molecule `C=C(C)CCO[P@@](=O)(O)OP(=O)(O)O` [IPP], the Km with AaFPPase-1 [3] and at AaFPPase-2 [4] was more than 900 µM each time.

B1: AaFPPase-2 (Aedes aegypti) (protein)
chain: MDKSHIRHLLDLSKEEKKAFLDSFDAIMSDCDGVVWNFTGPIPGVDEALQLLKQNGKKLAFISNNGMRTMDEYREKFSKLGIESQEHDIVHPALTTVKYLKSVNMQDAVYCIGTEVFKNYLRSEGFTVLDGPTERLPDGGAANAVRTFASYFTDTSGPAVGAVVVDIDVNVSLSHLMKAKCYLDRNPDCLLLVGATDYVIPLGDNMDVIGPGYFIDILEKATGRRALVLGKPGQALSEFILEQFHVTQPERTLFIGDMLPQDMGFGARCGFQKVLMLSGGTTKAMMFAHNKPEELPNFYADSFADFIQLYKDVMD
notes: His-tagged, expressed in E. coli, purified on HiTrap chelating and PD-10 columns, ~35 kDa
A word on the Vmax: it is the top rate of the reaction or transport when substrate is in excess. The kcat is the maximal rate divided by the concentration of active sites. The kcat/Km is the turnover number divided by the Michaelis constant. On to B1, for which, in data set [5], the Michaelis-Menten constant (Km) turned out to be 221.02 ± 15.62 µM, the maximum rate (Vmax) was 5.77 µmol/min/mg, the kcat was determined as 2.98 s⁻¹ and the catalytic efficiency (kcat/Km) was 13200 M⁻¹ s⁻¹. In data set [6], the Km amounted to 273.98 ± 2.52 µM, the Vmax was found to be 28.3 µmol/min/mg, the turnover number (kcat) amounted to 17.5 s⁻¹ and the kcat/Km was determined as 63000 M⁻¹ s⁻¹. In data set [7], the Km was 315.5 ± 46.9 µM.
